Assay results: publication PMC10485824 (Life Science Alliance, 2023)
Substitutions are numbered along the chain they refer to. Names may count otherwise. “And” between values parts separate entries of the source, which are not always exact repeats. Equal entries are not always repeated.

B1: XIAP BIR2^154–240 (domain or fragment, human, UniProt P98170 154-240, looked up)
chain: YPRNPAMYSEEARLKSFQNWPDYAHLTPRELASAGLYYTGIGDQVQCFCCGGKLKNWEPCDRAWSEHRRHFPNCFFVLGRNLNIRSE
notes: Plasmid pET49, a gift from Katrin Rittinger; also called short BIR2 construct; source: E. coli Rosetta 2, purified (glutathione sepharose, P3C cleavage, SEC); not shown: GST, N-terminal, cleaved
B2: XIAP BIR2AG^154–240 (domain or fragment, human, UniProt P98170 154-240, looked up)
chain: B1 chain with C49A, C60G
notes: XIAP, human, BIR2 domain, residues 154-240 with the AG mutations C202A and C213G; Plasmid pET49, a gift from Katrin Rittinger; also called AG construct (short); source: E. coli Rosetta 2, purified (glutathione sepharose, P3C cleavage, SEC); not shown: GST, N-terminal, cleaved
B3: RIPK2^1−317 (domain or fragment, human, UniProt O43353 1-317, looked up)
chain: MNGEAICSALPTIPYHKLADLRYLSRGASGTVSSARHADWRVQVAVKHLHIHTPLLDSERKDVLREAEILHKARFSYILPILGICNEPEFLGIVTEYMPNGSLNELLHRKTEYPDVAWPLRFRILHEIALGVNYLHNMTPPLLHHDLKTQNILLDNEFHVKIADFGLSKWRMMSLSQSRSSKSAPEGGTIIYMPPENYEPGQKSRASIKHDIYSYAVITWEVLSRKQPFEDVTNPLQIMYSVSQGHRPVINEESLPYDIPHRARMISLIESGWAQNPDERPSFLKCLIELEPVLRTFEEITFLEAVIQLKKTKLQSV
notes: Incubated with nucleotide (ATP or AMPPCP) and MgCl2 before XIAP BIR2 was added; ATP-MgCl2 is said to promote full phosphorylation; Antiparallel dimer in the complex; also called RIPK2 kinase; RIPK2 wt; source: sf21 insect cells (baculovirus), purified (amylose resin, TEV cleavage, anion exchange)
B4: RIPK2^1−317 K209A (domain or fragment, human, UniProt O43353 1-317, looked up)
chain: B3 chain with K209A
notes: Incubated with 500 μM ATP and 5 mM MgCl2 before XIAP BIR2 was added; also called RIPK2–K209A (recombinant); source: sf21 insect cells (baculovirus), purified as RIPK2 wt
B5: RIPK2^1−317 K209R (domain or fragment, human, UniProt O43353 1-317, looked up)
chain: B3 chain with K209R
notes: Incubated with 500 μM ATP and 5 mM MgCl2 before XIAP BIR2 was added; also called RIPK2–K209R (recombinant); source: sf21 insect cells (baculovirus), purified as RIPK2 wt
B6: RIPK2^1−317 S282L (domain or fragment, human, UniProt O43353 1-317, looked up)
chain: B3 chain with S282L
notes: Incubated with 500 μM ATP and 5 mM MgCl2 before XIAP BIR2 was added; also called RIPK2–S282L (recombinant); source: sf21 insect cells (baculovirus), purified as RIPK2 wt
B7: XIAP BIR2^124–240 (domain or fragment, human)
chain: GPRDHFALDRPSETHADYLLRTGQVVDISDTIYPRNPAMYSEEARLKSFQNWPDYAHLTPRELASAGLYYTGIGDQVQCFCCGGKLKNWEPCDRAWSEHRRHFPNCFFVLGRNLNIRSE
notes: two additional residues after the P3C cleavage site; XIAP, human, linker region (124-154) and BIR2 domain, residues 124-240; also called long BIR2 construct; source: E. coli Rosetta 2, purified (glutathione sepharose, P3C cleavage, SEC); not shown: GST, N-terminal, cleaved
B8: XIAP BIR2AG^124–240 (domain or fragment, human)
chain: B7 chain with C81A, C92G
notes: two additional residues after the P3C cleavage site; XIAP, human, residues 124-240 with the AG mutations C202A and C213G; For NMR uniformly 15N- or 13C/15N-labelled (M9 medium); also called AG construct (long); ^15N-labeled XIAP BIR2; source: E. coli Rosetta 2, purified (glutathione sepharose, P3C cleavage, SEC); not shown: GST, N-terminal, cleaved
B9: XIAP BIR2^93−263 (domain or fragment, human)
chain: GPINGFYLENSATQSTNSGIQNGQYKVENYLGSRDHFALDRPSETHADYLLRTGQVVDISDTIYPRNPAMYSEEARLKSFQNWPDYAHLTPRELASAGLYYTGIGDQVQCFCCGGKLKNWEPCDRAWSEHRRHFPNCFFVLGRNLNIRSESDAVSSDRNFPNSTNLPRNPSMA
notes: two additional residues after the P3C cleavage site; XIAP, human, residues 93-263; source: E. coli Rosetta 2, purified (glutathione sepharose, P3C cleavage, SEC); not shown: GST, N-terminal, cleaved
B10: XIAP BIR2^93−240 (domain or fragment, human)
chain: GPINGFYLENSATQSTNSGIQNGQYKVENYLGSRDHFALDRPSETHADYLLRTGQVVDISDTIYPRNPAMYSEEARLKSFQNWPDYAHLTPRELASAGLYYTGIGDQVQCFCCGGKLKNWEPCDRAWSEHRRHFPNCFFVLGRNLNIRSE
notes: two additional residues after the P3C cleavage site; XIAP, human, residues 93-240; source: E. coli Rosetta 2, purified (glutathione sepharose, P3C cleavage, SEC); not shown: GST, N-terminal, cleaved
B11: RIPK2^1−300 (domain or fragment, human, UniProt O43353 1-300, looked up)
chain: MNGEAICSALPTIPYHKLADLRYLSRGASGTVSSARHADWRVQVAVKHLHIHTPLLDSERKDVLREAEILHKARFSYILPILGICNEPEFLGIVTEYMPNGSLNELLHRKTEYPDVAWPLRFRILHEIALGVNYLHNMTPPLLHHDLKTQNILLDNEFHVKIADFGLSKWRMMSLSQSRSSKSAPEGGTIIYMPPENYEPGQKSRASIKHDIYSYAVITWEVLSRKQPFEDVTNPLQIMYSVSQGHRPVINEESLPYDIPHRARMISLIESGWAQNPDERPSFLKCLIELEPVLRTFEEI
modifications: labelled with the Monolith Protein labelling kit RED-NHS second generation (primary amines) for MST only
notes: RIPK2, human, kinase domain, residues 1-300; also called kinase domain of RIPK2 (residues 1–300); source: sf21 insect cells (baculovirus), purified (amylose resin, TEV cleavage, anion exchange)
B12: XIAP BIR2^124−263 (domain or fragment, human)
chain: GPRDHFALDRPSETHADYLLRTGQVVDISDTIYPRNPAMYSEEARLKSFQNWPDYAHLTPRELASAGLYYTGIGDQVQCFCCGGKLKNWEPCDRAWSEHRRHFPNCFFVLGRNLNIRSESDAVSSDRNFPNSTNLPRNPSMA
notes: two additional residues after the P3C cleavage site; XIAP, human, residues 124-263; source: E. coli Rosetta 2, purified (glutathione sepharose, P3C cleavage, SEC); not shown: GST, N-terminal, cleaved

Key:
RIPK2^1−300 [1] = target: B11; assay: MST; RIPK2 1-300 labelled with RED-NHS at 20 nM final, XIAP BIR2 constructs titrated from 1.2-2,500 nM; 20 mM Hepes pH 7.5, 150 mM NaCl, 2% glycerol, 0.05% Tween-20; 20°C; one-site binding model, triplicates; details: both partners purified
RIPK2^1−317 [2] = target: B3; assay: native MS; complex fractions reapplied on Superdex 200 10/300 increase in 250 mM ammonium acetate with 1 mM DTT; concentration range of 10 μM; details: both partners purified
RIPK2^1−317 [3] = target: B3; assay: cryo-EM structure; single-particle cryo-EM of the SEC-purified RIPK2 1-317-XIAP BIR2 154-240 complex, Titan Krios 300 keV, untilted and tilted data, 3.15 Å; details: both partners purified
[4] = target: the molecule itself; assay: native MS; complex fractions reapplied on Superdex 200 10/300 increase in 250 mM ammonium acetate with 1 mM DTT; concentration range of 10 μM
[5] = target: the molecule itself; assay: SEC; RIPK2 1-317 wt or mutant with 500 μM ATP and 5 mM MgCl2 on ice, XIAP BIR2 154-240 added in excess (1:2), Superdex 200 3.2/300 increase in buffer C; fractions on SDS-PAGE
RIPK2^1−300 [6] = target: B11; assay: native MS; complex fractions reapplied on Superdex 200 10/300 increase in 250 mM ammonium acetate with 1 mM DTT; concentration range of 10 μM; details: both partners purified
RIPK2^1−300 [7] = target: T1, RIPK2^1−300 (human, UniProt O43353 1-300, labelled with the Monolith Protein labelling kit RED-NHS second generation (primary amines) for MST only); assay: MST
T1 chain: B11 chain

For B1, the Kd (RIPK2^1−300 [1]) was 85.6 ± 18.7 nM, the “stoichiometry N” value (RIPK2^1−317 [2]) was 1 RIPK2 per XIAP BIR2 (printed as the ratio 2:2) and the “stoichiometry N” value (RIPK2^1−317 [3]) was 2 RIPK2 per XIAP BIR2 (printed as the ratio 2:1).

B2 was tested, and the “stoichiometry N” value (RIPK2^1−317 [2]) was 2 RIPK2 per XIAP BIR2 (printed as the ratio 2:1) and 1 RIPK2 per XIAP BIR2 (printed as the ratio 2:2).

For B3, the “stoichiometry N” value [4] was 2 molecules of RIPK2.

B4: binds [5].

B5: binds [5].

B6: binds [5].

For B7, the “stoichiometry N” value (RIPK2^1−300 [6]) was 1 RIPK2 per XIAP BIR2 (printed as the ratio 2:2) and 2 RIPK2 per XIAP BIR2 (printed as the ratio 2:1) and the Kd (RIPK2^1−300 [7]) was 85.9 nM.

B8 was tested, and the “stoichiometry N” value (RIPK2^1−317 [2]) was 1 RIPK2 per XIAP BIR2 (printed as the ratio 2:2).

B9: binds (RIPK2^1−300 [1]).

B10 was tested, and the binding result (RIPK2^1−300 [1]) was “binds” and the Kd (RIPK2^1−300 [7]) was 92.9 nM.

With B11 the “stoichiometry N” value [4] was 2 molecules of RIPK2.

For B12, the binding result (RIPK2^1−300 [1]) was “binds” and the Kd (RIPK2^1−300 [7]) was 142 nM.
